Tests used:
Format in all cases: cell-based, Human
H2795 = experiment: rTRAIL response, viability assay, H2795; settings: BAP1 Essential Splice, heterozygous
Experimental: (§1) Manual “single dose” combination screening was undertaken using 96 well formats. Cells were plated on day 1 in previously optimized seeding densities in 180 μl if media. On day 2 20 μl of a 10× concentration of […] was added. Cells were then allowed to grow for 72 hrs or 6 days and fixed at the end of the assay. Drug wells were compared to DMSO treated control wells.
(§2) Single agent high throughput 5 point viability screening was undertaken in 384 well formats using robotic liquid handling with fixing with 4% paraformaldehyde and staining for viability with Syto60 nucleic acid dye (Invitrogen) (see below). Single agent dose response curves were derived for each library of 85-95 drugs according to the experiment used, and log IC50 or area under the curve (AUC) metrics were derived for each library compound in each cell line according to a previously derived formula [18].
(§3) Adherent cell lines were seeded 24 hours before drugging. Cells were trypsinised and counted before seeding at the optimal density for the size of well (96 or 384) and duration of assay. 72 hr after drug treatment cells were fixed with 4% paraformaldehyde for 30 minutes. […] Quantification of fluorescent signal was achieved using excitation/emission wavelength of 630/695 […].

[1] = test system: BAP1 mutant cell lines (H2722, H2461, H28 and H2731); experiment: Annexin V/DAPI cell death assay, BAP1 mutant cell lines; settings: TRAIL 0-1000 ng/ml, 24 hours
Experimental: MPM cell lines were treated with a dose range from 0.5 ng/ml to 100 ng/ml and cell viability was measured using Syto-60 assay. Based on their cell viability, the cell lines were classified into resistant (red), partially sensitive (orange) and sensitive (green). Cell lines were western blotted to probe the expression of BAP1 protein expression. […] Three BAP1 wild-type cell lines (MPP-89, H2869 & H2818) and four BAP1 mutant cell lines (H2722, H2461, H28 and H2731) were treated with TRAIL (0-1000 ng/ml) for 24 hours and cell death quantified using an Annexin V/DAPI cell death assay.
Adherent mesothelioma cell lines were plated in a 96 well plate at approximately 10000 cells per well. Cells were plated and given 1 day to adhere at which time drug was added. After 48 hrs media, including floating cells, was collected from each well. The remaining adherent cells were washed with PBS and mobilised with 0.05% trypsin in EDTA. All cells were collected into tubes containing the previously removed media and pelleted by centrifugation (300 g, 5 minutes). […] Annexin V−/DAPI− cells were judged to be viable, AnnexinV+/DAPI− cells were considered to be undergoing apoptosis (early apoptotic phase), and Annexin V+/DAPI+ cells were considered late apoptotic or necrotic, and recorded as dead.

MSTO-211H = experiment: rTRAIL response, viability assay, MSTO-211H; settings: BAP1 Wild-type
Experimental: as §1, §2, §3

B1: rTRAIL: recombinant protein that activates the TRAIL pathway by binding to TRAIL-R1 (DR 4) and TRAIL-R2 (DR 5) (protein, UniProt P50591 1-281, looked up)
Tumor necrosis factor ligand …: MAMMEVQGGPSLGQTCVLIVIFTVLLQSLCVAVTYVYFTNELKQMQDKYSKSGIACFLKEDDSYWDPNDEESMNSPCWQVKWQLRQLVRKMILRTSEETISTVQEKQQNISPLVRERGPQRVAAHITGTRGRSNTLSSPNSKNEKALGRKINSWESSRSGHSFLSNLHLRNGELVIHEKGFYYIYSQTYFRFQEEIKENTKNDKQMVQYIYKYTSYPDPILLMKSARNSCWSKDAEYGLYSIYQGGIFELKENDRIFVSVTNEHLIDMDHEASFFGAFLVG
For B1, the rTRAIL response (H2795) was “Sensitive*”, the “fraction of cells stained with Annexin V” value [1] was “increased fraction of cells stained with the apoptotic marker Annexin V” and the rTRAIL response (MSTO-211H) was “Sensitive**”.

From patent US11789012B2, “Cell death biomarker” (UCL Business PLC, priority 2016, dated 2023)
